The text below walks through data of patent US20050037969A1 (ARBOR VITA, published 2005).

Holding throughout (experiment): A/G plate assays, Table 2 matrix
The target in experiment [1] is T1, GST-mouse syntenin fusion protein (Mus musculus, UniProt O08992 108-286).
T1 construct: also called Mus musculus Syntenin; not shown: glutathione S-transferase encoded by vector pGEX-3X (Pharmacia)
T1 chain: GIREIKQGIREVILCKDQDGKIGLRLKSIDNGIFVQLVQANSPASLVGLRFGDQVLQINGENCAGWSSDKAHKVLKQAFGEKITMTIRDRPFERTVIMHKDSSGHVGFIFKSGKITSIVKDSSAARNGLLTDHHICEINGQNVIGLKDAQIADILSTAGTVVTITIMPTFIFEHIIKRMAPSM

In experiment [2] the target is T2, GST-DLG5 (p-dlg) PDZ domain fusion protein (Human, UniProt Q8TDM6 1343-1583).
T2 construct: also called Human discs large protein p-dlg; not shown: glutathione S-transferase encoded by vector pGEX-3X (Pharmacia)
T2 sequence: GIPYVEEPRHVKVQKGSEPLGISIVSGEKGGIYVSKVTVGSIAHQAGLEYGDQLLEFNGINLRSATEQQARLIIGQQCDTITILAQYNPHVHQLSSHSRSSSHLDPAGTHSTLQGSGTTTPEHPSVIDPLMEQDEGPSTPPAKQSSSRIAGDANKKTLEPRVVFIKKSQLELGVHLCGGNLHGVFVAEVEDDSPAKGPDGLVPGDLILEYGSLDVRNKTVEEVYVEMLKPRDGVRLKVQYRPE

The target of experiment [3] is T3, GST-TAX-IP43 PDZ domain fusion protein (human, UniProt Q13884 109-180).
T3 construct: also called TAX43; not shown: glutathione S-transferase encoded by vector pGEX-3X (Pharmacia)
T3 sequence: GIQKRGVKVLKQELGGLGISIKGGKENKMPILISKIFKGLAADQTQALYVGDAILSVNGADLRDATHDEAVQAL

Experiment [4] concerns the target T4, GST-cytohesin binding protein PDZ domain fusion protein (Homo sapiens (Human), UniProt O60759 74-165).
T4 construct: also called CBP; not shown: glutathione S-transferase encoded by vector pGEX-3X (Pharmacia)
T4 sequence: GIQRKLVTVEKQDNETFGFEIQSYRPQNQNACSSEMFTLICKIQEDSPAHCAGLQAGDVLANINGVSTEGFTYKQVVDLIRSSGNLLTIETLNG

In experiment [5] the target is T5, GST-DVL1 PDZ domain fusion protein (human, UniProt O14640 247-339).
T5 construct: also called human dishevelled segment polarity protein homolog; not shown: glutathione S-transferase encoded by vector pGEX-3X (Pharmacia)
T5 sequence: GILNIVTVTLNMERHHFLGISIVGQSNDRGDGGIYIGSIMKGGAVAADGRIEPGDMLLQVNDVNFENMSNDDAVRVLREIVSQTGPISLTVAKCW

Ends that are not written are not given here. * marks the point of attachment. Biotin = O=C1N[C@H]2[C@H](CS[C@H]2CCCCC(=O)*)N1

For Biotin-QFMTADETRNLQNVDMKIGV (also called CD44 (long form)) [CD44 C-terminal peptide AA9L, biotinylated], the binding result in experiment [1] is “binds”.

B1: Spectrin (beta) C-terminal peptide AA32L, biotinylated (peptide)
peptide: Biotin-SFPPCGHRENVPGQSLVSFV
notes: Marked (S), sticky; also called Spectrin beta (S); Spectrin β
For the molecule B1, the binding result in experiment [2], in experiment [3] and in experiment [4] was “binds” each time.

With Biotin-TTNNNPNSAVNIKKIFTDV [KV1.3 C-terminal peptide AA33L, biotinylated], the binding result in experiment [5] is given as “binds”.
